Reference: US20250163127A1
Positions count from the first letter of the chain named. In names and notes the source's numbering stands.

B1: ICOSL-Fc N52S/N57Y/Q100M (Fc fusion)
chain: DTQEKEVRAMVGSDVELSCACPEGSRFDLNDVYVYWQTSESKTVVTYHIPQSSSLEYVDSRYRNRALMSPAGMLRGDFSLRLFNVTPQDEQKFHCLVLSMSLGFQEVLSVEVTLHVAANFSVPVVSAPHSPSQDELTFTCTSINGYPRPNVYWINKTDNSLLDQALQNDTVFLNMRGLYDVVSVLRIARTPSVNIGCCIENVLLQQNLTVGSQTGNDIGERDKITENPVSTGEKNAAT
B2: ICOSL-Fc N52V/N57T/Q100L (Fc fusion)
chain: B1 chain with S52V, Y57T, M100L
B3: ICOSL-Fc N52G/N57V/Q100G (Fc fusion)
chain: B1 chain with S52G, Y57V, M100G
B4: ICOSL-Fc N52R/N57F/Q100T (Fc fusion)
chain: B1 chain with S52R, Y57F, M100T
B5: ICOSL-Fc N52G/N57V (Fc fusion)
chain: B1 chain with S52G, Y57V, M100Q
B6: ICOSL-Fc N57Q/Q100P (Fc fusion)
chain: B1 chain with S52N, Y57Q, M100P
B7: ICOSL-Fc N52L/N57V (Fc fusion)
chain: B1 chain with S52L, Y57V, M100Q
B8: ICOSL-Fc N52S/N57Y/Q100V (Fc fusion)
chain: B1 chain with M100V
B9: ICOSL-Fc N52R/N57W/Q100K (Fc fusion)
chain: B1 chain with S52R, Y57W, M100K
B10: ICOSL-Fc N52R/N57Y/Q100R (Fc fusion)
chain: B1 chain with S52R, M100R
B11: ICOSL-Fc N52T/N57H/Q100A (Fc fusion)
chain: B1 chain with S52T, Y57H, M100A
B12: ICOSL-Fc N52L/N57H/Q100R (Fc fusion)
chain: B1 chain with S52L, Y57H, M100R
B13: ICOSL-Fc N52K/N57Y/Q100R (Fc fusion)
chain: B1 chain with S52K, M100R
B14: ICOSL-Fc N52R/N57L/Q100S (Fc fusion)
chain: B1 chain with S52R, Y57L, M100S
B15: ICOSL-Fc N52T/N57H/Q100S (Fc fusion)
chain: B1 chain with S52T, Y57H, M100S
B16: ICOSL-Fc N52P/N57S/Q100G (Fc fusion)
chain: B1 chain with S52P, Y57S, M100G
B17: ICOSL-Fc N52C/N57E/Q100S (Fc fusion)
chain: B1 chain with S52C, Y57E, M100S
B18: variant CD80 V4M/L70Q/A91G/I118V/T120S/T130A/K169E (Fc fusion)
chain: VIHMTKEVKEVATLSCGHNVSVEELAQTRIYWQKEKKMVLTMMSGDMNIWPEYKNRTIFDITNNLSIVIQALRPSDEGTYECVVLKYEKDGFKREHLAEVTLSVKADFPTPSISDFEVPSSNIRRIICSASGGFPEPHLSWLENGEELNAINTTVSQDPETELYAVSSELDFNMTTNHSFMCLIKYGHLRVNQTFNWNTTKQEHFPDN
B19: variant CD80 A91G/L102S (Fc fusion)
chain: B18 chain with M4V, Q70L, L102S, V118I, S120T, A130T, E169K
B20: variant CD80 V22A/L70Q/S121P (Fc fusion)
chain: B18 chain with M4V, V22A, G91A, V118I, S120T, S121P, A130T, E169K
B21: variant CD80 I67F/L70R/E88G/A91G/I118V/T120S/T130A (Fc fusion)
chain: B18 chain with M4V, I67F, Q70R, E88G, E169K
B22: variant CD80 K37E/F59S/L70Q/A91G/T120S/T130A (Fc fusion)
chain: B18 chain with M4V, K37E, F59S, V118I, E169K
B23: variant CD80 S44P/L70Q/A91G/T130A (Fc fusion)
chain: B18 chain with M4V, S44P, V118I, S120T, E169K
B24: variant CD80 L70Q/A91G/T110A/I118V/T120S/T130A (Fc fusion)
chain: B18 chain with M4V, T110A, E169K
B25: variant CD80 K54M/L70Q/A91G/Y164H (Fc fusion)
chain: B18 chain with M4V, K54M, V118I, S120T, A130T, Y164H, E169K
B26: variant CD80 A91G/F92L/F108L/I118V/T120S (Fc fusion)
chain: B18 chain with M4V, Q70L, F92L, F108L, A130T, E169K
B27: variant CD80 A12V/S15F/Y31H/M38L/T41G/M43L/D90N/T130A/P137L/N149D/N152T (Fc fusion)
chain: VIHVTKEVKEVVTLFCGHNVSVEELAQTRIHWQKEKKLVLGMLSGDMNIWPEYKNRTIFDITNNLSIVILALRPSDEGTYECVVLKYEKNAFKREHLAEVTLSVKADFPTPSISDFEIPTSNIRRIICSASGGFPELHLSWLENGEELDAITTTVSQDPETELYAVSSKLDFNMTTNHSFMCLIKYGHLRVNQTFNWNTTKQEHFPDN
B28: variant CD80 E24G/R29D/Y31L/Q33H/K36G/M38I/T41A/M43R/M47T/F59L/E81V/L85R/K89N/A91T/F92P/K93V/R94L/H96R/N149S/C182S (Fc fusion)
chain: VIHVTKEVKEVATLSCGHNVSVEGLAQTDILWHKEGKIVLAMRSGDTNIWPEYKNRTILDITNNLSIVILALRPSDEGTYVCVVRKYENDTPVLERLAEVTLSVKADFPTPSISDFEIPTSNIRRIICSTSGGFPEPHLSWLENGEELSAINTTVSQDPETELYAVSSKLDFNMTTNHSFMSLIKYGHLRVNQTFNWNTTKQEHFPDN
B29: variant CD80 L70Q/A91G/I118V/T120S/T130A/K169E (Fc fusion)
chain: B18 chain with M4V

target: CD28 (human) (UniProt P10747); experiment: flow cytometry, transfected cells

Row | MFI [MFI] | MFI ratio to WT (ΔWT) [fold] | Binder
1 | 157000 | 7 | B1
2 | 6200 | 0.3 | B2
3 | 23700 | 1.1 | B3
4 | 127000 | 5.7 | B4
5 | 69100 | 3.1 | B5
6 | 15200 | 0.7 | B6
7 | 54800 | 2.5 | B7
8 | 126000 | 5.7 | B8
9 | 131000 | 5.9 | B9
10 | 3280 | 0.1 | B10
11 | 113000 | 5 | B11
12 | 141000 | 6.3 | B12
13 | 141000 | 6.3 | B13
14 | 112000 | 5 | B14
15 | 143000 | 6.4 | B15
16 | 6800 | 0.3 | B16
17 | 13400 | 0.6 | B17

target: CTLA-4 (Homo sapiens (Human)) (UniProt P16410); experiment: flow cytometry, transfected cells
Sequence (P16410 36-223): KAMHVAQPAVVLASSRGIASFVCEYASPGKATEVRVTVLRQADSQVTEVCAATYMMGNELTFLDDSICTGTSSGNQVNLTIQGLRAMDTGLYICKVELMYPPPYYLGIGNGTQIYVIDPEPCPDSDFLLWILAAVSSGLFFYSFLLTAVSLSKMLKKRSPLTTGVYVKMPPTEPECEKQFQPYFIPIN

Row | MFI [MFI] | MFI ratio to WT (ΔWT) [fold] | Binder
18 | 395000 | 1.2 | B1
19 | 11500 | 0.03 | B2
20 | 14700 | 0.04 | B3
21 | 358000 | 1.08 | B4
22 | 52500 | 0.16 | B5
23 | 69100 | 0.21 | B6
24 | 151000 | 0.46 | B7
25 | 305000 | 0.92 | B8
26 | 477000 | 1.44 | B9
27 | 4270 | 0.01 | B10
28 | 350000 | 1.06 | B11
29 | 353000 | 1.07 | B12
30 | 233000 | 0.71 | B13
31 | 289000 | 0.88 | B14
32 | 378000 | 1.14 | B15
33 | 5050 | 0.02 | B16
34 | 10600 | 0.03 | B17

target: CD28 (human) (UniProt P10747); experiment: flow cytometry, cells expressing CD28

Row | MFI [MFI] | parental ratio | Binder
35 | 89 | 0.94 | B18
36 | 6 | 0.06 | B19
37 | 5 | 0.06 | B20
38 | 5 | 0.05 | B21
39 | 20 | 0.21 | B22
40 | 88 | 0.92 | B23
41 | 8 | 0.09 | B24
42 | 68 | 0.71 | B25
43 | 50 | 0.53 | B26
44 | 6 | 0.06 | B27
45 | 1070 | 0.08 | B28

target: PD-L1 (human); experiment: flow cytometry, cells expressing PD-L1
Sequence (chain, as listed by the source): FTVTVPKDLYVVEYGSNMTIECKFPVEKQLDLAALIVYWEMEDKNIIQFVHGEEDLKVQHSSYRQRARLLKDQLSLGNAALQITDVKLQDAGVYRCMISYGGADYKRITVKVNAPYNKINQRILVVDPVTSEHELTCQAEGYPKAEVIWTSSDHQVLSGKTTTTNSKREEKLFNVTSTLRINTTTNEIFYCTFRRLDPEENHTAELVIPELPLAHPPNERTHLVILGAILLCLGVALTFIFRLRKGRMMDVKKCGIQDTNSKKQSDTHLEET

Row | MFI [MFI] | parental ratio | Binder
46 | 6 | 0.09 | B18
47 | 5 | 0.08 | B19
48 | 5 | 0.07 | B20
49 | 6 | 0.08 | B21
50 | 6 | 0.08 | B22
51 | 5 | 0.07 | B23
52 | 5 | 0.07 | B24
53 | 6 |  | B29
54 | 5 | 0.08 | B25
55 | 16 | 0.11 | B26
56 | 5 | 0.08 | B27
57 | 1120 | 0.06 | B28

target: CTLA-4 (human); experiment: flow cytometry, cells expressing CTLA-4
Sequence (chain, as listed by the source): as the sequence (P16410 36-223) above

Row | MFI [MFI] | parental ratio | Binder
58 | 263 | 1.26 | B18
59 | 6 | 0.03 | B19
60 | 7 | 0.04 | B20
61 | 6 | 0.03 | B21
62 | 74 | 0.36 | B22
63 | 134 | 0.64 | B23
64 | 14 | 0.07 | B24
65 | 131 | 0.63 | B25
66 | 128 | 0.61 | B26
67 | 6 | 0.03 | B27
68 | 1020 | 0.02 | B28

substrate: ICOS (Homo sapiens (Human)) (UniProt Q9Y6W8); experiment: flow cytometry, transfected cells
Sequence (Q9Y6W8 21-199 limits assumed): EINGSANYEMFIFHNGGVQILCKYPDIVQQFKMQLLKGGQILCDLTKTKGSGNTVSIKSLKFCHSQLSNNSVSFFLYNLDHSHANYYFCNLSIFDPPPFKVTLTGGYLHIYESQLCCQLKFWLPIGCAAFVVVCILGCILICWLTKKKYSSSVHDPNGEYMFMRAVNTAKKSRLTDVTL

Row | MFI [MFI] | MFI ratio to WT (ΔWT) [fold] | Binder
69 | 303000 | 1.43 | B1
70 | 29200 | 0.14 | B2
71 | 260000 | 1.23 | B3
72 | 270000 | 1.27 | B4
73 | 332000 | 1.57 | B5
74 | 205000 | 0.97 | B6
75 | 257000 | 1.21 | B7
76 | 219000 | 1.03 | B8
77 | 349000 | 1.65 | B9
78 | 6100 | 0.03 | B10
79 | 220000 | 1.04 | B11
80 | 250000 | 1.18 | B12
81 | 199000 | 0.94 | B13
82 | 231000 | 1.09 | B14
83 | 259000 | 1.22 | B15
84 | 143000 | 0.68 | B16
85 | 125000 | 0.59 | B17
